Test results from the supplement of paper PMC10126150.
± gives the standard deviation of the averaged measurements.

Test system: ATP
Test: switch fluorescence ratio, 500 uM ATP over buffer (Cy3 cluster intensity, sum of 5 cycles each) (fold (ratio)); higher = stronger signal-on switching upon ATP binding; sequences stand for … in TCGTCGGCAGCGTCAGATGTGTATAAGAGACAGTTTTTTTTTTTTTTTTTTTTTTTTT…TC
Details: aptamer strand: ATP DNA aptamer (quencher-CACCTGGGGGAGTATTGCGGAGGAAGG + anchor), 100 nM annealed; ATP concentration: 500 uM
Summary of the method: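 Switching-strand clusters labelled with Cy3 on a modified Illumina MiSeq flow-cell were annealed to 100 nM quencher-labelled ATP aptamer, imaged in selection buffer, and re-imaged after 15 min with 500 uM ATP at 22 °C. This was done over five cycles with NaOH stripping and re-annealing in between. The fluorescence ratio is summed target-cycle over summed buffer-cycle Cy3 intensity per cluster, averaged per switch-domain sequence, excluding clusters outside 100-1000 RFU.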
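Further: ATP exposure 15 min at 22 °C before imaging.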

Row | Sequence | switch fluorescence ratio
1 | TTTCAAAAGG | 1.01 ± 0.019
2 | CGGGGGCAGC | 1.01 ± 0.06
3 | AGGGCGTTTG | 0.998 ± 0.018
4 | TTATTATTAC | 1.04 ± 0.062
5 | ATGAAGGATG | 1.01 ± 0.02
6 | TTGGGAATTC | 0.98044 ± 0.00048
7 | TTTTTGGTAC | 1.05 ± 0.076
8 | AATGTGAGGG | 0.9772 ± 0.0092
9 | AGAGGTAACT | 0.993 ± 0.014
10 | CCTATTACTT | 1 ± 0.034
11 | AGGTAAATGT | 0.972 ± 0.023
12 | GTTAGAATGG | 0.981 ± 0.017
13 | TAAGTTGAGC | 0.965 ± 0.057
14 | TAATCAGAGC | 1.02 ± 0.039
15 | AAGGTTAGTA | 0.9924 ± 0.007
16 | TAAATGTATG | 1.01 ± 0.041
17 | TCCCCCCCTT | 1.41 ± 0.58
18 | TATTACCGTT | 1.006 ± 0.0076
19 | CTGGTTATCG | 0.9998 ± 0.0032
20 | GGCTGGGTTT | 1.02 ± 0.026
21 | CGCTGCTGGT | 0.998 ± 0.031
22 | TTCTTGGTCT | 1.009 ± 0.0067
23 | AATTCTAAAC | 0.9881 ± 0.0038

Row | Sequence | switch fluorescence ratio
24 | ATTGAATTAA | 1.04 ± 0.02
25 | CTGGGGGGCA | 0.997 ± 0.017
26 | CGTTTGTTAT | 1.05 ± 0.04
27 | CCTGATGGGG | 1.01 ± 0.017
28 | TCGGAGTTTG | 0.9963 ± 0.0024
29 | TGTCAGAAGC | 0.994 ± 0.012
30 | ATATCTGAGT | 1.03 ± 0.016
31 | ACATAGTCGA | 1.03 ± 0.045
32 | AAGTTGTTGA | 1 ± 0.028
33 | GATTATTTTC | 1.03 ± 0.061
34 | AACGTGTTGG | 1.013 ± 0.0015
35 | GAAGGGTGAA | 0.9966 ± 0.0077
36 | TTAGTTGTAG | 0.993 ± 0.026
37 | ATTTTCAATG | 1 ± 0.018
38 | CTGCATGACG | 1.01 ± 0.047
39 | TAATACTGTT | 0.888 ± 0.031
40 | GATTTAAAGC | 0.984 ± 0.034
41 | TTTCATACGG | 1.008 ± 0.0034
42 | GGGTTAATGT | 1.01 ± 0.061
43 | TTTTTCGGGT | 0.974 ± 0.018
44 | TCCGTATTTT | 1.29 ± 0.41
45 | AATAAAGCCT | 1.15 ± 0.29
46 | GGGTCAGGAT | 0.968 ± 0.019

Row | Sequence | switch fluorescence ratio
47 | GGTTCAGCCT | 1.01 ± 0.018
48 | TTTCGCTTTT | 1.03 ± 0.044
49 | GCTTGAGTTC | 1.03 ± 0.025
50 | CGGGGTGGGG | 0.993 ± 0.056
51 | TTTAGCTGGG | 1.01 ± 0.019
52 | GGGGGCCCCA | 1.01 ± 0.022
53 | ATCTGGGCGG | 0.997 ± 0.029
54 | TCTAATACAG | 1.03 ± 0.032
55 | TAGGTGCTGG | 1.04 ± 0.07
56 | TTATGTCTTC | 0.984 ± 0.026
57 | TCAAAATTGG | 1.004 ± 0.0082
58 | TTCTATCCTA | 1.02 ± 0.012
59 | GGCGGAACTA | 1.01 ± 0.018
60 | TTTTGTAAGC | 1.04 ± 0.083
61 | TTGCTTCCAC | 1.08 ± 0.032
62 | TTGCTGTGTC | 1.07 ± 0.028
63 | TTCATCGGGA | 0.981 ± 0.055
64 | CGTGCTGGTG | 1.03 ± 0.022
65 | GCGCGTGAGC | 1.061 ± 0.0011
66 | AGCTGGGGGT | 1.02 ± 0.06
67 | TGGCTATGCG | 0.969 ± 0.029
68 | CCGAAGGGGT | 1.18 ± 0.16
69 | CAGATTTGCT | 0.983 ± 0.013

Row | Sequence | switch fluorescence ratio
70 | AACATGCTTA | 0.972 ± 0.02
71 | CTTTTAACGA | 1.01 ± 0.03
72 | GACACCACAG | 1.162 ± 0.0035
73 | TGTGGTTACA | 0.989 ± 0.025
74 | GGTTGAACAT | 0.9661 ± 0.0027
75 | TTTTTTACCG | 1.02 ± 0.04
76 | TCGGAATGGG | 0.975 ± 0.017
77 | GGAATGGGTT | 1.01 ± 0.023
78 | TGATGGATAT | 0.9921 ± 0.0021
79 | ATTTAGTATC | 1.09 ± 0.14
80 | GGGGTGGGCA | 1 ± 0.011
81 | AATATAGAAG | 0.984 ± 0.033
82 | GATTTGGAAT | 0.986 ± 0.037
83 | CGGCAGGCAG | 1.04 ± 0.13
84 | CTTACTGCAT | 1.27 ± 0.068
85 | AGTCCGTCTA | 1.01 ± 0.05
86 | ATGTCGATGG | 0.9908 ± 0.0065
87 | GTTTTAATTA | 1.01 ± 0.021
88 | CAAAAGTGGG | 0.9928 ± 0.0018
89 | GCGTTGGGGA | 1.02 ± 0.015
90 | ATTTAAGTTG | 0.987 ± 0.015
91 | TTTTACCTTG | 1.028 ± 0.01
92 | AGGGTGAGGT | 0.993 ± 0.022

Row | Sequence | switch fluorescence ratio
93 | GATCGGGGGT | 1.01 ± 0.027
94 | CGACCGGGGA | 1.04 ± 0.011
95 | TATATTGACC | 1.04 ± 0.03
96 | TGGGTATCGG | 0.994 ± 0.021
97 | GGTATTGTTT | 0.9881 ± 0.0066
98 | GATTGGGCCA | 0.996 ± 0.017
99 | ACTGTAAATT | 1.086 ± 0.0031
100 | AAGAGCGGAC | 1.11 ± 0.047
101 | GTTAGTTTGG | 1 ± 0.015
102 | CATCGTGGGT | 0.975 ± 0.027
103 | TTAAAGTGCT | 0.984 ± 0.021
104 | AATTGGGGTG | 1.06 ± 0.011
105 | TCAGGTTAAG | 0.9954 ± 0.0061
106 | TTACTCTGGG | 1.003 ± 0.0032
107 | CGAAGAGGAG | 0.981 ± 0.011
108 | TTCAGTAGAT | 0.951 ± 0.032
109 | ATTTTGGATG | 0.996 ± 0.025
110 | GGCCCGGACT | 1.04 ± 0.013
111 | AAGAGGTCG | 1.02 ± 0.046
112 | TCTGTTAGTG | 1.03 ± 0.045
113 | GTAATCTGTT | 0.989 ± 0.075
114 | TGATTAAATA | 0.994 ± 0.028
115 | CAACTTTACC | 1.16 ± 0.027

Row | Sequence | switch fluorescence ratio
116 | GTCTCATCAC | 1.01 ± 0.056
117 | GGGGAGGCTG | 0.971 ± 0.039
118 | ATGGGGTAGG | 0.995 ± 0.022
119 | AGGGGACTGT | 1.01 ± 0.047
120 | ATACGAAGGA | 1 ± 0.028
121 | GGGGAGGCCA | 0.963 ± 0.031
122 | GATACTATGT | 1.01 ± 0.0085
123 | TGTCGGGCAG | 0.9843 ± 0.0038
124 | CCAATGAGTG | 1.01 ± 0.023
125 | AATAGTGGTG | 1 ± 0.022
126 | ATATGGGGGA | 0.99 ± 0.038
127 | TCGTTGTCGT | 1.04 ± 0.03
128 | TTTTGCCCGA | 0.988 ± 0.029
129 | TCATTGTTCG | 0.958 ± 0.0035
130 | GACTGGGGG | 1.0292 ± 0.00087
131 | TACTTACGAT | 1.37 ± 0.065
132 | AAGGAATACA | 1.07 ± 0.041
133 | AGGTTAAAGG | 1 ± 0.016
134 | AAAGTTTTCG | 0.977 ± 0.026
135 | ATCGTCGGAT | 0.982 ± 0.022
136 | TCCGCGGGTG | 1.61 ± 0.82
137 | ATCTGGTTTG | 0.955 ± 0.023
138 | TCAAAATTAT | 1.02 ± 0.043

Row | Sequence | switch fluorescence ratio
139 | AGTGTATGGC | 1.01 ± 0.032
140 | TTAAATGGTG | 1.05 ± 0.072
141 | TGATAAGTAC | 1.38 ± 0.065
142 | TCTGAAGGGG | 1.12 ± 0.11
143 | AATATAGGTA | 1.02 ± 0.011
144 | GATAGCCCGT | 0.99 ± 0.021
145 | AATTTACGAA | 1.01 ± 0.019
146 | ACGCATGGGT | 1.04 ± 0.028
147 | AGAATGGCTT | 1 ± 0.041
148 | GAGGCATTTT | 1.09 ± 0.089
149 | GACGGCGGGC | 0.989 ± 0.023
150 | AAGGCATGAT | 1.0128 ± 0.00018
151 | ATGGGTCTTT | 0.9811 ± 0.0016
152 | AATAGTTTCA | 1.01 ± 0.014
153 | TTACTTTAGG | 1.05 ± 0.023
154 | TAGTAGAAAG | 1.002 ± 0.0032
155 | GATCATCCTT | 1.03 ± 0.0052
156 | GCAGGATGAA | 0.97 ± 0.042
157 | CGACGGTTGG | 0.967 ± 0.013
